Earlier results, collected in paper PMC10990137.

Molecular target: IGF2R domain 11 (Homo sapiens) (UniProt P11717)
Conditions: cited from earlier work

Sequence of IGF2 (P01344 25-91): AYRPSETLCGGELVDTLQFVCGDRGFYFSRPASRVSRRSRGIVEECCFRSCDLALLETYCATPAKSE
Sequence of IGF2R domain 11 (Homo sapiens) (P11717 1508-1650): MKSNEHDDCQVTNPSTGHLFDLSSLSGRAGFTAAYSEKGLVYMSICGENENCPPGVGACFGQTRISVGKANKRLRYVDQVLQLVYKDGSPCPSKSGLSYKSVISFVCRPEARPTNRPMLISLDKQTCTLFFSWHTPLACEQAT

For IGF2 (from UniProt P01344), the Kd is listed as 4.5 nM.
